Values of other authors as cited in article PMC7252266.

Target: UROD (Homo sapiens) (UniProt P06132)

For UROD (from UniProt P06132), the Kd is given as 0.1 µM.
